Assay results reported in publication PMC12052159.

What was measured:
Experiment in all cases: EMSA
Conditions in all cases: EMSA with 5' 32P PCR fragments, MarA 1, 2 or 4 uM, PAGE at 150 V; buffer, salt, pH and temperature not given (cited method)
MarA (Escherichia coli) = target: T1, MarA (Escherichia coli) (UniProt P0ACH5)
T1 sequence: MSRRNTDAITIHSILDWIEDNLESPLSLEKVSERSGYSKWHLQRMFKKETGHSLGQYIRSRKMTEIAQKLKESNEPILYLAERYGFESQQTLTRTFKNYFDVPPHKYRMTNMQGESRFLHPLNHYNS

Rob (Escherichia coli) = target: T2, Rob (Escherichia coli) (UniProt P0ACI0)
T2 sequence: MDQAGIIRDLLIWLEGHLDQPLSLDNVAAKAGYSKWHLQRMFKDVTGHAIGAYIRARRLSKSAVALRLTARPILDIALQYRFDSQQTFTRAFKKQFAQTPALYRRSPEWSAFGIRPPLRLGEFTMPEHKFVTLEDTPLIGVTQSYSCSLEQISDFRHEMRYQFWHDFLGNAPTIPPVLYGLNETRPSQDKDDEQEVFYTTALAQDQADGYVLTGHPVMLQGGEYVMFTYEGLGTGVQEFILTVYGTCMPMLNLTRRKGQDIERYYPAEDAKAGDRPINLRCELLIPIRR

SoxS (Escherichia coli) = target: T3, SoxS (Escherichia coli) (UniProt P0A9E2)
T3 sequence: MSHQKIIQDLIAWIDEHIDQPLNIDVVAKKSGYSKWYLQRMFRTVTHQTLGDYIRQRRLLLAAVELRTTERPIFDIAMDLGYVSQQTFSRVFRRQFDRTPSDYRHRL

| Sequence | binding (MarA (Escherichia coli)) | binding (Rob (Escherichia coli)) | binding (SoxS (Escherichia coli)) |
| --- | --- | --- | --- |
| AATTCATTGGCCAGAGGGTTTGGTTGGGTGAGAATGTGACGGTTTTGCCTGGAACAATTATTGGTAATGGAGTCGTAGTCGGCGCCAATTCTGTTGTTAGAGGTTCTATTCCCGAAAATACTGTCATTGCGGGAGTACCAGCAAAAATCATAAAGAAATACAATCATGAGACCAAATTATGAAGCTTCGGGC / GCCCGAAGCTTCATAATTTGGTCTCATGATTGTATTTCTTTATGATTTTTGCTGGTACTCCCGCAATGACAGTATTTTCGGGAATAGAACCTCTAACAACAGAATTGGCGCCGACTACGACTCCATTACCAATAATTGTTCCAGGCAAAACCGTCACATTCTCACCCAACCAAACCCTCTGGCCAATG [wbbK regulatory region] | no binding |  |  |
| AATTCCATGGTGTACGGTTCCTGCGAGATGGGAAAGTAAAAATCCGCGGCATGATATAGCAATTATCGATAATTAACATCCACACATTTTACGCTACATTTGCGCATTAAAAATTATTTGTTATTTACAAGCGCGGCAAGGGCCGCCAGTCTTCAGCCACAAATTTTGGTTGCGGGCGAAAAAATGCGACAATACATACAATTGCCCGAATAGGTTGAAAAACAGGATTGATATGAAGCTTCGGGC / GCCCGAAGCTTCATATCAATCCTGTTTTTCAACCTATTCGGGCAATTGTATGTATTGTCGCATTTTTTCGCCCGCAACCAAAATTTGTGGCTGAAGACTGGCGGCCCTTGCCGCGCTTGTAAATAACAAATAATTTTTAATGCGCAAATGTAGCGTAAAATGTGTGGATGTTAATTATCGATAATTGCTATATCATGCCGCGGATTTTTACTTTCCCATCTCGCAGGAACCGTACACCATGG [lpxLmut3 regulatory region] | binds |  |  |
| AATTCTGCAACTAAACCGTGGCACAAATGGGCAATTTATCCATCGGTAAAATACTATAAAATAGCTTTAGAAAATTCCCCCTGGAAAGATGACTCTCCACGAGATGCGAAATCAATTATTGAATTTAAAAAAAGATATAAACATCTTTTAGTGCAACATCATTATATCTCAGGAATTATAGCAGGAGTCTGTTATCTTTGCCGAAAATATTACCGTAAATAACATTTAACTGGTTTATTATGAAGCTTCGGGC / GCCCGAAGCTTCATAATAAACCAGTTAAATGTTATTTACGGTAATATTTTCGGCAAAGATAACAGACTCCTGCTATAATTCCTGAGATATAATGATGTTGCACTAAAAGATGTTTATATCTTTTTTTAAATTCAATAATTGATTTCGCATCTCGTGGAGAGTCATCTTTCCAGGGGGAATTTTCTAAAGCTATTTTATAGTATTTTACCGATGGATAAATTGCCCATTTGTGCCACGGTTTAGTTGCAG [rfaY (waaY) regulatory region] | binds | binds | binds |
| AATTCTGCGTAAGCAAGCTGATTAAGAATTGACTGGAATTTGGGTTTCGAGTGTGTTTGTGCTAAACTGGCCCGCCGAATGTATAGTACACTTCGGTTGGATAGGTAATTTGGCGAGATAATACGATGAAGCTTCGGGC / GCCCGAAGCTTCATCGTATTATCTCGCCAAATTACCTATCCAACCGAAGTGTACTATACATTCGGCGGGCCAGTTTAGCACAAACACACTCGAAACCCAAATTCCAGTCAATTCTTAATCAGCTTGCTTACGCAG [lpxCmut regulatory region] | binds more weakly |  |  |
| GCCCGAAGCTTCATAACTGTAACCTTCGAATTATGGAGTCAGAGACAATCTCAGACACGAATGTCTGTAATCATACCATCACATCCGAATCCCTTCAGCCCTTTACATAGAGGTGCAAGGATGCTAATTGCAACAAACTAGTTTGGGTTTTAGCTAGTCCTTCATGGCGGATGTTGGTTTTGCATGTGAATAGTGCG / AATTCGCACTATTCACATGCAAAACCAACATCCGCCATGAAGGACTAGCTAAAACCCAAACTAGTTTGTTGCAATTAGCATCCTTGCACCTCTATGTAAAGGGCTGAAGGGATTCGGATGTGATGGTATGATTACAGACATTCGTGTCTGAGATTGTCTCTGACTCCATAATTCGAAGGTTACAGTTATGAAGCTTCGGGC [waaD regulatory region] | no binding |  |  |
| GCCCGAAGCTTCATAGTAAATAGCTGACTTATGGATGTGCTGGGGATTCTATGTATTTAGCTGTGGCTTTACCATTACTTTTCCCGTTTTTGACTTAAATAGCTTCAGTTTGGTCTGATCTGCCGCTACATCTTCATTTTTTTTGTATTTTTATGCGATTCATTGAAACTCGGCCCG / AATTCGGGCCGAGTTTCAATGAATCGCATAAAAATACAAAAAAAATGAAGATGTAGCGGCAGATCAGACCAAACTGAAGCTATTTAAGTCAAAAACGGGAAAAGTAATGGTAAAGCCACAGCTAAATACATAGAATCCCCAGCACATCCATAAGTCAGCTATTTACTATGAAGCTTCGGGC [kdtA (waaA) regulatory region] | binds |  |  |
| GCCCGAAGCTTCATATCAATCCTGTTTTTCAACCTATTCGGGCAATTGTATGTATTGTCGCATTTTTTCGCCCGCAACCAAAATTTGTGGCTGAAGACTGGGCGAAATTGCCGCGCTTGTAAATAACAAATAATTTTTAATGCGCAAATGTAGCGTAAAATGTGTGGATGTTAATTATCGATAATACATATATCATGCCGCGGATTTTTACTTTCCCATCTCGCAGGAACCGTACACCATGG / AATTCCATGGTGTACGGTTCCTGCGAGATGGGAAAGTAAAAATCCGCGGCATGATATATGTATTATCGATAATTAACATCCACACATTTTACGCTACATTTGCGCATTAAAAATTATTTGTTATTTACAAGCGCGGCAATTTCGCCCAGTCTTCAGCCACAAATTTTGGTTGCGGGCGAAAAAATGCGACAATACATACAATTGCCCGAATAGGTTGAAAAACAGGATTGATATGAAGCTTCGGGC [lpxLmut1 regulatory region] | binds more weakly |  |  |
| GCCCGAAGCTTCATATCAATCCTGTTTTTCAACCTATTCGGGCAATTGTATGTATTGTCGCATTTTTTCGCCCGCAACCAAAATTTGTGGCTGAAGACTGGGCGAAATTGCCGCGCTTGTAAATAACAAATAATTTTTAATGCGCAAATGTAGCGTAAAATGTGTGGATGTTAATTATCGATAATTGCTATATCATGCCGCGGATTTTTACTTTCCCATCTCGCAGGAACCGTACACCATGG / AATTCCATGGTGTACGGTTCCTGCGAGATGGGAAAGTAAAAATCCGCGGCATGATATAGCAATTATCGATAATTAACATCCACACATTTTACGCTACATTTGCGCATTAAAAATTATTTGTTATTTACAAGCGCGGCAATTTCGCCCAGTCTTCAGCCACAAATTTTGGTTGCGGGCGAAAAAATGCGACAATACATACAATTGCCCGAATAGGTTGAAAAACAGGATTGATATGAAGCTTCGGGC [lpxL regulatory region] | binds | binds | binds |
| GCCCGAAGCTTCATATCAATCCTGTTTTTCAACCTATTCGGGCAATTGTATGTATTGTCGCATTTTTTCGCCCGCAACCAAAATTTGTGGCTGAAGACTGGGCGAAATTGCCGCGCTTGTAAATAACAAATAATTTTTAATGCTGTAATGTAGCGTAAAATGTGTGGATGTTAATTATCGATAATTGCTATATCATGCCGCGGATTTTTACTTTCCCATCTCGCAGGAACCGTACACCATGG / AATTCCATGGTGTACGGTTCCTGCGAGATGGGAAAGTAAAAATCCGCGGCATGATATAGCAATTATCGATAATTAACATCCACACATTTTACGCTACATTACAGCATTAAAAATTATTTGTTATTTACAAGCGCGGCAATTTCGCCCAGTCTTCAGCCACAAATTTTGGTTGCGGGCGAAAAAATGCGACAATACATACAATTGCCCGAATAGGTTGAAAAACAGGATTGATATGAAGCTTCGGGC [lpxLmut2 regulatory region] | binds |  |  |
| GCCCGAAGCTTCATCGTATTATCTCGCCAAATTACCTATCCAACCGAAGTGTACTATACATTCGGCGGGCCAGTTTAGCACAAAGAGCCTCGAAACCCAAATTCCAGTCAATTCTTAATCAGCTTGCTTACGCAG / AATTCTGCGTAAGCAAGCTGATTAAGAATTGACTGGAATTTGGGTTTCGAGGCTCTTTGTGCTAAACTGGCCCGCCGAATGTATAGTACACTTCGGTTGGATAGGTAATTTGGCGAGATAATACGATGAAGCTTCGGGC [lpxC regulatory region] | binds | binds | binds |
| GCCCGAAGCTTCATGATGAGCATTCAGATAGTGGTTCACGCGCACGGGTTGCGCACCGCCGGAGTAAGGATTTACTGAGGCTAGCGACGCCATCATAACGAGCAAAAAGACAGATCGTCAAAGGAGAATCGTGAGGAAATGCTGCATTGCTGACATTTACGCCG / AATTCGGCGTAAATGTCAGCAATGCAGCATTTCCTCACGATTCTCCTTTGACGATCTGTCTTTTTGCTCGTTATGATGGCGTCGCTAGCCTCAGTAAATCCTTACTCCGGCGGTGCGCAACCCGTGCGCGTGAACCACTATCTGAATGCTCATCATGAAGCTTCGGGC [pbpGmut regulatory region] | no binding |  |  |
| GCCCGAAGCTTCATGATGAGCATTCAGATAGTGGTTCACGCGCACGGGTTGCGCACCGCCGGAGTAAGGATTTACTGAGGCTAGCGACGCCATCATAACGAGCAAAAAGTGCGATCGTCAAAGGAGAATCGTGAGGAAATGCTGCATTGCTGACATTTACGCCG / AATTCGGCGTAAATGTCAGCAATGCAGCATTTCCTCACGATTCTCCTTTGACGATCGCACTTTTTGCTCGTTATGATGGCGTCGCTAGCCTCAGTAAATCCTTACTCCGGCGGTGCGCAACCCGTGCGCGTGAACCACTATCTGAATGCTCATCATGAAGCTTCGGGC [pbpG regulatory region] | binds |  |  |
